Measured values reported in US20240342298A1 (IMMUNWORK, published 2024).

Experiments:
human CD38 [1] = target: T1, human CD38 (human, UniProt P28907 1-300); test: flow cytometry on live H929 cells, PE anti-human IgG-Fc detection
T1 construct: whole, on cells; also called full-length human CD38

human CD38 [2] = target: T1, human CD38; test: flow cytometry on live U266-CD38+ cells, PE anti-human IgG-Fc detection

EC50 (human CD38 [1]): 1.02 nM | EC50 (human CD38 [2]): 0.13 nM
B1: daratumumab (antibody, V domains shown)
VH: EVQLLESGGGLVQPGGSLRLSCAVSGFTFNSFAMSWVRQAPGKGLEWVSAISGSGGGTYYADSVKGRFTISRDNSKNTLYLQMNSLRAEDTAVYFCAKDKILWFGEPVFDYWGQGTLVTVSS
VL: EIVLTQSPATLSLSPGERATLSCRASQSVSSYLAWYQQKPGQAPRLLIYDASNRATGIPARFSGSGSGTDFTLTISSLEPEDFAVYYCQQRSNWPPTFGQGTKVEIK
